17 molecules from patent publication US20240182575A1 (Ablynx, published 2024) can be followed below.

The labels stand for the following.
B1: CD8086PMP1A3 (VHH)
VHH: EVQLVESGGGLVQAGGSLRLSCAASGPTSSSYSMGWFRQAPGKEREFVAAINWSHGVTYYADSVKGRFTISRDIAKNTVYLQMNSLKPEDTAVYYCAANEYGLGSSIYAYKHWGQGTQVTVSS
notes: not shown: C-terminal c-myc tag and His6 tag
B2: CD8086PMP2E6 (VHH)
VHH: EVQLVESGGGLVQAGGSLRLSCAASGSIFSIYDMGWYRQAPGKQRVLVATITSGGSTNYADSVKGRFTISRDDAKNTVYLQMNSLKPEDTAVYYCNAIAHEEGVYRWDFWGQGTQVTVSS
notes: as for B1
B3: CD8086PMP2F5 (VHH)
VHH: B2 VHH with E6K, V46E, T50A, D73N, H100Y
notes: as for B1
B4: CD8086PMP1D1 (VHH)
VHH: EVQLVESGGGLVQAGGSLRLSCAASGRTFSSKAMGWFRQAPGKERDFVAAITWSGGSTYYADHVKGRFTISRDNAKNTVYLQMNSLKPEDTAVYYCATNPYGLGQVGYDYWGQGTQVTVSS
notes: as for B1
B5: CD8086PMP2A7 (VHH)
VHH: B4 VHH
notes: as for B1
B6: CD8086PMP2B10 (VHH)
VHH: EVQLVESGGGLVQAGGSLRLSCTGSQISFSDNTMNWYRQVPGKQRELVASLSIFGATGYADSVKGRFTISRDIAGNTVYLQMNDLKIEDTAVYYCKLGPVRRSRLEYWGQGTQVTVSS
notes: as for B1
B7: 4CTLAPMP11E3 (VHH)
VHH: EVQLVESGGGLVEPGGSLRLSCAASGSISSYNVMGWYRQAPGQQRDLVAHIASNGEIMYADSAKGRFTISRDNAKKTVYLQMNSLKPEDTAVYYCKLWVLGNDYWGQGTQVTVSS
notes: also called 11E3 WT; not shown: C-terminal c-myc tag and His6 tag
B8: 4CTLAPMP12H2 (VHH)
VHH: B7 VHH with G108R
notes: short label tied to the entry by the clone code only; not shown: C-terminal c-myc tag and His6 tag
B9: 4CTLAPMP06C10 (VHH)
VHH: EVQLVESGGGLVQAGGSLRLSCAASGRTFSNYTIAYFRQAPGREREFAAAISPHGTLRSFADSVKDRFTISRDNAKNTVWLQMNSLKLEDTAVYYCAADPSGWGLRQHSENEYPYWGLGTQVTVSS
notes: as for B8
B10: 4CTLAPMP03C4 (VHH)
VHH: EVQLVESGGGLVQAGGSLRLSCAASGGTFSFYGMGWFRQAPGKEREFVADIRTSAGRTYYADSVKGRFTISRDNAKNTVYLQMNSLKPEDTAVYYCAAEMSGISGWDYWGQGTQVTVSS
notes: as for B8
B11: 4CTLAPMP17E3 (VHH)
VHH: EVQLMESGGGLVTAGGSLRLSCAASGGTFGHYAMAWFRRPPGNEREFVAGIGWTYTTFYADSVKGRFAISRDNAENTVYLQMNNLKPDDTAVYYCAAAELKGRNLRVPDYEHWGQGTQVTVSS
notes: as for B8
B12: 4CTLAPMP02A5 (VHH)
VHH: EVQLVESGGGLVQAGGSLRLSCAASGRTNSTTLMGWSRRAPGKEREFVAAISGSGTLTSYADSVKGRFAISRDNAKNTVYLQMNSLKPEDTAIYYCAAGLTSWALIPSRTLTTWGQGTQVTVSS
notes: as for B8
B13: 4CTLAPMP10G5 (VHH)
VHH: EVQLVESGGGLVQAGGSLRLSCAASGGTFSRYIMAWFRQAPGKEREFVAVIDGSGYSTDYAGSVKGRFTIARDNTKNTAYLQMNSLKPEDTALYFCGAGRQYSTGPYWYDYWGQGTQVTVSS
notes: as for B8
B14: 4CTLAPMP13B2 (VHH)
VHH: EVQLVESGGGLVQPGGSLRLSCVASGIHFAISTINWYRQAPGKQRESVAAITGTSVTGYADSVKGRFTLSRDNAKNTVYLQMDNLKPEDTAVYYCNVWSGRDYWGQGTQVTVSS
notes: as for B8
B15: 4CTLAPMP02C11 (VHH)
VHH: EVQLVESGGGLVQPGGSLRLSCAASGNIFTRHIMGWYRQAPGKQRELVASITPGDNINYADSVKGRFTISRDGAKNTVYLQMNSLKPEDTAVYYCNAHGSILLDRTNYWGQGTQVTVSS
notes: as for B8
B16: 4CTLAPMP08E5 (VHH)
VHH: B15 VHH with G26R, N27D, H32N, E46D, D55G, I57M, N58Y, T106S
notes: label 8E5.4 tied to 4CTLAPMP08E5 by the clone code only; the suffix .4 is not explained; also called 8E5.4; not shown: C-terminal c-myc tag and His6 tag
B17: 4CTLAPMP03A6 (VHH)
VHH: EVQLVESGGGLVQPGGSLRLSCAAPGRTFSNYAMGWFRQAPGKGREFVADIRWSDGRTYYADSVKGRFTVSRDNAKNTVYLQMNSLKPEDTAVYYCAAQGGVLSGWDYWGQGTQVTVSS
notes: as for B8

Changes are numbered by the printed parent chain.

The target in one assay is T1, HuCD80-HuIgG1 (fusion protein of the extracellular part of human CD80 and human Fc gamma 1, R&D Systems Cat … (human, UniProt P33681 35-242)).
T1 construct: extracellular domain; bought, produced in NS0 cells; also called CD80-IgG1; CD80-Ig; not shown: human Fc gamma 1
T1 sequence (looked up): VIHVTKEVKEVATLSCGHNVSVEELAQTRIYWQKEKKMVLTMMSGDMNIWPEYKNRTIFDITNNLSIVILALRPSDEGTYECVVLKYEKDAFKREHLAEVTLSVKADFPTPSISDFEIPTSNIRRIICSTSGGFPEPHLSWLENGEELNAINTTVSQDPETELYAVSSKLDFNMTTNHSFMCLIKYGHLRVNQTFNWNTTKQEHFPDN
Put plainly: ELISA, periplasmic extract on coated antigen, anti-myc detection. An excerpt: (§1) To this end, 3 independent ELISA assays were set up. In these ELISAs, either HuCD80 or HuCD86 fusion proteins or human IgG1 were coated on ELISA plates which were washed and then blocked using Marvel skimmed milk powder (Premier Brands UK Ltd., Wirral, Merseyside, UK). […] Four aliquots of periplasmic extract of individual clones prepared as described in Example 4 were allowed to bind in all four types of ELISA plates. Binding of Nanobody to immobilized antigen was detected using mouse anti-c-myc tag monoclonal antibody as a secundary, followed by a goat-anti-mouse (human and bovine serum protein pre-absorbed) HRP conjugate for detection (for detailed protocol, see the prior art and prior applications filed by applicant).
(In general: An ELISA detects its analyte on a solid surface through an enzyme-linked reagent.)
On to B1, for which the OD amounted to 1.92 OD.
Same read-out and setting: the result for B2 reads 1.52 OD; that for B3, 1.65 OD.
Molecule B4 showed an OD of 1.89 OD.
The molecule B5 had an OD of 1.71 OD.

The target of a further assay is T2, HuCD86-HuIgG1 (fusion protein of the extracellular part of human CD86 and human Fc gamma 1, R&D Systems Cat … (human, UniProt P42081 24-247)).
T2 construct: extracellular domain; bought; also called CD86-IgG1; CD86-Ig; not shown: human Fc gamma 1
T2 sequence (looked up): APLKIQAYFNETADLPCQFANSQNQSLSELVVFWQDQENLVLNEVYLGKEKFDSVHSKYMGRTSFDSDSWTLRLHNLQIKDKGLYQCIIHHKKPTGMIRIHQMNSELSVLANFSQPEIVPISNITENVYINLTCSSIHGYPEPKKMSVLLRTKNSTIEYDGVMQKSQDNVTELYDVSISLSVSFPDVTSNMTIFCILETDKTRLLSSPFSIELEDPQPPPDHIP
Described as above.
From the text: as §1
Molecule B6 came in with an OD of 1.73 OD.
The same measure, in the same setting: the same measure for B1: 0.053 OD; for B2: 0.538 OD; for B3: 0.774 OD.
The same measure, in the same setting: the same measure for B4: 0.043 OD; for B5: 0.042 OD.

The target of another assay is T3, Human IgG1, purified from a human plasma (Sigma-Aldrich Cat #I-5154) (human).
T3 construct: also called HuIgG1
The description is as above.
From the text: as §1
B6 gave an OD of 0.044 OD.
Same read-out and setting: the result for B1 reads 0.052 OD.
As for B2, the OD was determined as 0.049 OD.
Same read-out and setting: the same measure for B3: 0.056 OD; for B4: 0.046 OD; for B5: 0.043 OD.

Another assay deals with T4, human CTLA4 (Y201 mutated to valine) on stably transfected CHO-K1 cells (human, UniProt P16410 36-223).
T4 construct: whole, on cells; the mutation of the intracellular position Y201 keeps the protein on the membrane; also called human CTLA4 overexpressing CHO cells; human CTLA4 transfectant
T4 sequence (P16410 other isoform, or with tags, fused parts or gaps, change not shown): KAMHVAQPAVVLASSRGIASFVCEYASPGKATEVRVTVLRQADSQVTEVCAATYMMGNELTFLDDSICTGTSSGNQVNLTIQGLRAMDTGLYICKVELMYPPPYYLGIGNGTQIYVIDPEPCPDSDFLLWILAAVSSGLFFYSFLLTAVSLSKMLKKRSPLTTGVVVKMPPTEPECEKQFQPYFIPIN
Put plainly: FACS, direct binding titration on human CTLA4 CHO cells (head prints IC50). The method, then: Binding of putative CTLA4 reactive Nanobodies clones was detected using unlabeled anti-c-myc tag mouse monoclonal antibody 9E10, followed by a phycoerythrin conjugated F(ab′)2 derived from goat-anti-mouse IgG (human and bovine crossabsorbed), and read on a BD FACSarray instrument. Dead cells were excluded from the analysis by gating out TOPRO3 vital dye positive scoring cells. Binding of the Nanobodies to cells was evaluated in BD FACSarray control software as PE channel histograms.
Broadly, the IC50 is the midpoint of a concentration-inhibition curve. Take B7: the IC50 was determined as 4.91 nM.
The same measure, in the same setting: the result for B8 reads 5.82 nM; that for B9, 5.73 nM.
On to B10, for which the 50% inhibitory concentration (IC50) was found to be 8.06 nM.
As for B11, the concentration for half-maximal inhibition (IC50) was 11.2 nM.
Still for that read-out and setting: the result for B12 reads 5.72 nM.
The same measure, in the same setting: the same measure for B13: 4.65 nM; for B14: 3.6 nM.

The next assay addresses T2, HuCD86-HuIgG1 (fusion protein of the …). The assay can be described thus: SPR, Biacore 3000, antigen amine-coupled. The method, then:
Affinity constants (Kd) of individual purified Nanobody clones were determined by surface plasmon resonance on a Biacore 3000 instrument. […] Remaining reactive groups were inactivated using ethanolamine. Nanobody binding was assessed at 1 and 0.1 microM. Each sample was injected for 4 min at a flow rate of 45 μl/min to allow for binding to chip-bound antigen. Next, binding buffer without Nanobody was sent over the chip at the same flow rate to allow for dissociation of bound Nanobody. After 2 min, remaining bound analyte was removed by injecting regeneration solution (50 mM NaOH or Glycine/HCl pH 1.5). Binding curves obtained at different concentrations of Nanobody were used to calculate Kd values.
A general note: Surface plasmon resonance follows binding to a sensor surface in real time, without labels.
In general, Kd refers to the equilibrium constant for the complex coming apart. One may read the koff as the first-order rate constant of dissociation. As usually defined, the kon is the rate constant with which the complex forms. As for B6, binding was characterised by a dissociation constant (Kd) of 4 nM, the koff came out at 0.00097 s⁻¹ and the on-rate (kon) was determined as 250000 M⁻¹ s⁻¹.

The target of a further assay is T5, HuCTLA4-HuIgG1 (fusion protein of the extracellular part of human CD152 and human Fc gamma 1, CTLA4-Ig) (human, UniProt P16410 36-161).
T5 construct: extracellular domain; also called CTLA4-hFc; CTLA4-Fc; not shown: human Fc gamma 1
T5 sequence (P16410 36-161 limits assumed): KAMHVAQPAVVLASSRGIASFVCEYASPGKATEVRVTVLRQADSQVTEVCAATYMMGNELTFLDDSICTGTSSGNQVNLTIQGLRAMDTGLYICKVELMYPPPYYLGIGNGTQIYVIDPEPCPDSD
Put plainly: SPR, Biacore T100, CTLA4-Ig amine-coupled. The method, then:
Affinity constants (Kd) of individual purified Nanobody clones were determined by surface plasmon resonance on a Biacore T100 instrument. […] Remaining reactive groups were inactivated using ethanolamine. […] Each sample was injected for 2 min at a flow rate of 45 μl/min to allow for binding to chip-bound antigen. Next, binding buffer without Nanobody was sent over the chip at the same flow rate to allow for dissociation of bound Nanobody. After 2 min, remaining bound analyte was removed by injecting regeneration solution (10 mM Glycine/HCl pH 1.5). Binding curves obtained at different concentrations of Nanobody were used to calculate KD values. For some clones, only a single undetermined concentrations of Nanobody was injected.
The molecule B15 displayed a koff of 0.0235 s⁻¹.
Still for that read-out and setting: the result for B16 reads 0.00386 s⁻¹.
Same read-out and setting: the result for B17 reads 0.0018 s⁻¹.
B7 displayed a Kd of 10 nM, a koff of 0.00496 s⁻¹ and a kon of 742000 M⁻¹ s⁻¹.
The like results for B8 were, in that order, 7.52 nM, 0.00258 s⁻¹ and 349000 M⁻¹ s⁻¹.
In turn, B9 returned a koff of 0.00279 s⁻¹.
On the same count and under the same terms, the same measure for B10: 0.0205 s⁻¹; for B11: 0.00489 s⁻¹; for B12: 0.0053 s⁻¹.
Same read-out and setting: the same measure for B13: 0.00618 s⁻¹; for B14: 0.0067 s⁻¹.

The next assay has as its target T6, cynomolgus monkey CTLA4 on stably transfected CHO-K1 cells (human CTLA4 cDNA with S13N, I17T and L105M) (human backbone with cynomolgus monkey …, UniProt P16410 36-223).
T6 chain: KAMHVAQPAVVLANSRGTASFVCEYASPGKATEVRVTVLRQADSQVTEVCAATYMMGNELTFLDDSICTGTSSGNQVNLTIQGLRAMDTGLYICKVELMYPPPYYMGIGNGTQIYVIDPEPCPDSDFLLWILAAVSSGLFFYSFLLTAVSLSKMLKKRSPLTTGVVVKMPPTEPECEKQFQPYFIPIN
Put plainly: FACS, direct binding titration on cyno CTLA4 CHO cells (head prints IC50). Background: Flow cytometry measures light scatter and fluorescence of single cells or particles in a stream.
Turning to B7, the IC50 worked out at 4.5 nM.
On the same count and under the same terms, the result for B8 reads 5.65 nM.
Still for that read-out and setting: the result for B9 reads 5.47 nM; that for B10, 6.73 nM.
Still for that read-out and setting: the same measure for B12: 7.74 nM.
